We go through one variant from PMC7820495.

B1: VCP^WT-sfGFP (Drosophila VCP tagged with sfGFP at the endogenous locus) [Drosophila] / wild-type VCP (endogenous, untagged, Drosophila) [Drosophila (endogenous in flies)] (parent)
chain 1: MADSKGEDLATAILKRKDRPNRLIVEEAQNDDNSVVSLSQAKMDELQLFRGDTVILKGKRRKETVCIVLSDDTCPDEKIRMNRVVRNNLCVHLSDVVSVQSCPDVKYGKRVRILPIDESTEGVTGNLFEIYLKPYFLEAYRPIHMGDNFIVRAAMRPIEFKVVLTDPEPYCIVAPETVIFCDGDPIKREEEEESLNAVGYDDIGGCRKQLAQIKEMVELPLRHPSLFKAIGVKPPRGILMYGPPGTGKTLIARAVANETGAFFFLINGPEIMSKLAGESESNLRKAFEEAEKNSPAIIFIDEIDAIAPKRDKTHGEVERRIVSQLLTLMDGMKKSSHLIVMAATNRPNSIDPALRRFGRFDREIDIGIPDATGRLEVLRIHTKNMKLHDDVDLEQIAAESHGHVGADLASLCSEAALQQIREKMDLIDLEDDKIDAEVLASLAVTMENFRYAMTKSSPSALRETVVEVPNTTWTDIGGLESVKKELQELVQYPVEHPDKFLKFGMQPSRGVLFYGPPGCGKTLLAKAIANECQANFISVKGPELLTMWFGESEANVRDIFDKARSAAPCVLFFDELDSIAKARGGNVGDAGGAADRVINQILTEMDGMGAKKNVFIIGATNRPDIIDPAILRPGRLDQLIYIPLPDDKSREAILKANLRKSPLAKEVDLTYIAKVTQGFSGADLTEICQRACKLAIRQAIEAEIRREKERAENQNSAMDMDEDDPVPEITSAHFEEAMKFARRSVSDNDIRKYEMFAQTLQQSRGFGQNFRFPGQTGNTSGSGNNLPVNSPGDNGDDDLYS
chain 2: B1 chain 1

In the assay the parent is B1. The experiment in a line: co-immunoprecipitation (IP: GFP, IB: VCP), band quantification. Particulars: with wild-type VCP (endogenous, untagged, Drosophila) [Drosophila (endogenous in flies)]; heterozygous flies; n = 3 independent experiments; read off a plot.
As to chain 1 P134L, the response worked out at 0.93.
